Reference: publication PMC8660890

Target: recombinant β subunit of human MUC4 mucin (rMUC4β) (human)
Assay: native gel or EMSA; Blue Native PAGE of purified rMUC4β following thermal denaturation, non-reducing conditions; western blot with anti-His tag mAb

stoichiometry N: 2
Substance: recombinant β subunit of human MUC4 mucin (rMUC4β) (domain or fragment)
